Data published in article PMC10621992.

Biological target: TBK1 (UniProt Q9UHD2)
Test: co-immunoprecipitation, immunoblot
Conditions: reference: wild-type IRF3 + TBK1 + BLK; sites Y107

With “IRF3 (from UniProt Q14653) IRF3(Y107F) + TBK1 + BLK” the “binding against the reference” value was “weaker”.
